Reference: doi:10.1101/651877 (bioRxiv, 2019)
Residue numbers refer to the chain shown, from its start. Names may count otherwise. Each block holds one molecule with its values, some of them ahead of it.

How the values were obtained:
[1] = molecular target: wild type Mfn2 with a C-terminal 3xFLAG tag (UniProt Q80U63); test: native gel or EMSA
native gel or EMSA = molecular target: the molecule itself; test: native gel or EMSA

- stoichiometry N [1]: 2
Molecule: wild type Mfn2 with a C-terminal 3xFLAG tag (from UniProt Q80U63 1-757) (natural protein)

B1: Mfn2^S378P with a C-terminal 3xFLAG tag (natural protein, UniProt Q80U63 1-757, looked up)
chain: MSLLFSRCNSIVTVKKDKRHMAEVNASPLKHFVTAKKKINGIFEQLGAYIQESASFLEDTHRNTELDPVTTEEQVLDVKGYLSKVRGISEVLARRHMKVAFFGRTSNGKSTVINAMLWDKVLPSGIGHTTNCFLRVGGTDGHEAFLLTEGSEEKKSVKTVNQLAHALHQDEQLHAGSMVSVMWPNSKCPLLKDDLVLMDSPGIDVTTELDSWIDKFCLDADVFVLVANSESTLMQTEKQFFHKVSERLSRPNIFILNNRWDASASEPEYMEEVRRQHMERCTSFLVDELGVVDRAQAGDRIFFVSAKEVLSARVQKAQGMPEGGGALAEGFQVRMFEFQNFERQFEECISQSAVKTKFEQHTVRAKQIAEAVRLIMDPLHIAAQEQRVYCLEMREERQDRLRFIDKQLELLAQDYKLRIKQITEEVERQVSTAMAEEIRRLSVLVDEYQMDFHPSPVVLKVYKNELHRHIEEGLGRNLSDRCSTAIASSLQTMQQDMIDGLKPLLPVSMRNQIDMLVPRQCFSLSYDLNCDKLCADFQEDIEFHFSLGWTMLVNRFLGPKNSRRALLGYSDQVQRPLPLTPANPSMPPLPQSSLTQEELMVSMVTGLASLTSRTSMGILVVGGVVWKAVGWRLIALSFGLYGLLYVYERLTWTTKAKERAFKRQFVEYASEKLQLIISYTGSNCSHQVQQELSGTFAHLCQQVDITRDNLEQEIAAMNKKVEALDSLQSRAKLLRNKAGWLDSELNMFTHQYLQPSR
- stoichiometry N (native gel or EMSA): 2

B2: Mfn2^A383V with a C-terminal 3xFLAG tag (natural protein, UniProt Q80U63 1-757, looked up)
chain: B1 chain with P378S, A383V
- stoichiometry N (native gel or EMSA): 2

B3: Mfn2^C390F with a C-terminal 3xFLAG tag (natural protein, UniProt Q80U63 1-757, looked up)
chain: B1 chain with P378S, C390F
- stoichiometry N (native gel or EMSA): 2

B4: Mfn2^Q386P with a C-terminal 3xFLAG tag (natural protein, UniProt Q80U63 1-757, looked up)
chain: B1 chain with P378S, Q386P
- stoichiometry N (native gel or EMSA): 2
